Results reported in patent US20260167710A1 (GlaxoSmithKline, published 2026).

How the values were obtained:
cynomolgus IL-33 = biological target: T1, cynomolgus IL-33 (cynomolgus monkey, UniProt A0A2K5W3I1 112-269); experiment: MSD-SET solution equilibrium titration, 25 C, n = 3
T1 construct: also called cyno IL-33; cynomolgus monkey IL-33
T1 sequence: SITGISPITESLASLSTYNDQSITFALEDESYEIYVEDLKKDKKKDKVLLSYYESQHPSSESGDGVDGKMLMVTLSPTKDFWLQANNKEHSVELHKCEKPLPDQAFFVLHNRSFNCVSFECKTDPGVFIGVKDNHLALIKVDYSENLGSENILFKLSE

human IL-33 [1] = biological target: T2, human IL-33 (human, Biotinylated in Example 2; the site is not stated.); experiment: cell-based or functional assay
T2 chain: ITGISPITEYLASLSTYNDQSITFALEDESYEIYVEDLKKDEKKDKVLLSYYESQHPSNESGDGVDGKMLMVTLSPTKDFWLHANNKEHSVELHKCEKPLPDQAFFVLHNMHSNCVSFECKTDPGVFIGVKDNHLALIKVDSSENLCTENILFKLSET

human IL-33 [2] = biological target: T2, human IL-33; experiment: cell-based or functional assay
cFcgRIIa = biological target: T3, cFcgRIIa (cynomolgus monkey); experiment: SPR (ProteOn XPR36), anti-poly-histidine IgG surface, antibody as analyte, equilibrium fit, 25 C
T3 construct: extracellular domain; also called recombinant soluble cynomolgus monkey Fc gamma receptor IIa

[3] = biological target: T4, cynomolgus recombinant neonatal receptor (FcRn) (cynomolgus monkey, UniProt Q8SPV9 24-297; Q8SPW0 21-119); experiment: SPR (ProteOn XPR36), antibody captured by protein L, FcRn as analyte, equilibrium fit, pH 6.0, 25 C
T4 construct: extracellular domain; beta-2-microglobulin is not mentioned; also called cyno FcRn; cynomolgus monkey FcRn
T4 sequence (Q8SPV9 24-297 limits assumed, chain 1 of 2): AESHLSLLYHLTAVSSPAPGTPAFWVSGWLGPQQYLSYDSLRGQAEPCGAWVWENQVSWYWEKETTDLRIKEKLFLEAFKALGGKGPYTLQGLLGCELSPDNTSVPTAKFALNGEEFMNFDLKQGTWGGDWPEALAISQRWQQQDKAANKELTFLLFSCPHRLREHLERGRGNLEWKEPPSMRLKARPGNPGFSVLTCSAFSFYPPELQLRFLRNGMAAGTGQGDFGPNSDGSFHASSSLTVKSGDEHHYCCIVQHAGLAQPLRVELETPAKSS
T4 sequence (Q8SPW0 21-119 limits assumed, chain 2 of 2): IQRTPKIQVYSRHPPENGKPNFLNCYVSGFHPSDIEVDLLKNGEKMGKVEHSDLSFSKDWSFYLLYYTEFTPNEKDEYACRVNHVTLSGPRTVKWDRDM

[4] = biological target: T5, human recombinant neonatal receptor (FcRn) (human, UniProt P55899 24-297; P61769 21-119); experiment: as above
T5 construct: also called human FcRn; human recombinant soluble FcRn
T5 sequence (P55899 24-297 limits assumed, chain 1 of 2): as the sequence (Q8SPV9 24-297 limits assumed, chain 1 of 2) above, with D39N, Q44E, S99G, G189S, N190S, M217L, T269S counted along it
T5 sequence (P61769 21-119 limits assumed, chain 2 of 2): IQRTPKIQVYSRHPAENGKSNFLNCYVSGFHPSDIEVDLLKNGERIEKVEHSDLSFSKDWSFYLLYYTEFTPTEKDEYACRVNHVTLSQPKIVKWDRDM

human IL-33 [5] = biological target: T2, human IL-33; experiment: cell-based or functional assay

B1: 22A06-458 (antibody, human IgG1, kappa)
heavy: QVQLVQSGAEVKKPGASVKVSCKASGYTFISYGMHWVRQAPGQGLEWMGEINPHGGSTSYAQKFKGRVTMTRDTSTSTVYMELSSLRSEDTAVYYCARPSAAYSHYLGIDLWGRGTLVTVSSASTKGPSVFPLAPSSKSTSGGTAALGCLVKDYFPEPVTVSWNSGALTSGVHTFPAVLQSSGLYSLSSVVTVPSSSLGTQTYICNVNHKPSNTKVDKKVEPKSCDKTHTCPPCPAPELLGGPSVFLFPPKPKDTLYITREPEVTCVVVDVSHEDPEVKFNWYVDGVEVHNAKTKPREEQYNSTYRVVSVLTVLHQDWLNGKEYKCKVSNKALPAPIEKTISKAKGQPREPQVYTLPPSRDELTKNQVSLTCLVKGFYPSDIAVEWESNGQPENNYKTTPPVLDSDGSFFLYSKLTVDKSRWQQGNVFSCSVMHEALHNHYTQKSLSLSPGK
light: DIQMTQSPSSVSASVGDRVTITCRASQGISSWLAWYQQKPGKAPKLLIYAASRLQSGVPSRFSGSGSGTDFTLTISSLQPEDFATYYCQQANVFPLTFGGGTKVEIKRTVAAPSVFIFPPSDEQLKSGTASVVCLLNNFYPREAKVQWKVDNALQSGNSQESVTEQDSKDSTYSLSSTLTLSKADYEKHKVYACEVTHQGLSSPVTKSFNRGEC
Cynomolgus IL-33
  Kd: 0.0275 nM
Human IL-33 [1]
  IC50, inhibition of IL-33 (15 pM) induced superoxide generation from eosinophils, pre-complexed, Mean: 19.6 pM
  IC50, inhibition of IL-33 (15 pM) induced superoxide generation from eosinophils, pre-complexed, N = 1: 21.9 pM
  IC50, inhibition of IL-33 (15 pM) induced superoxide generation from eosinophils, pre-complexed, N = 2: 23.5 pM
  IC50, inhibition of IL-33 (15 pM) induced superoxide generation from eosinophils, pre-complexed, N = 3: 16.5 pM
  IC50, inhibition of IL-33 (15 pM) induced superoxide generation from eosinophils, pre-complexed, N = 4: 25.6 pM
  IC50, inhibition of IL-33 (15 pM) induced superoxide generation from eosinophils, pre-complexed, N = 5: 14.8 pM
  IC50, inhibition of IL-33 (15 pM) induced superoxide generation from eosinophils, pre-complexed, N = 6: 10.5 pM
  IC50, inhibition of IL-33 (15 pM) induced superoxide generation from eosinophils, pre-complexed, N = 7: 24.8 pM
  pIC50, inhibition of IL-33 (15 pM) induced superoxide generation from eosinophils, pre-complexed, Mean: 10.7
  pIC50, inhibition of IL-33 (15 pM) induced superoxide generation from eosinophils, pre-complexed, N = 1: 10.7
  pIC50, inhibition of IL-33 (15 pM) induced superoxide generation from eosinophils, pre-complexed, N = 2: 10.6
  pIC50, inhibition of IL-33 (15 pM) induced superoxide generation from eosinophils, pre-complexed, N = 3: 10.8
  pIC50, inhibition of IL-33 (15 pM) induced superoxide generation from eosinophils, pre-complexed, N = 4: 10.6
  pIC50, inhibition of IL-33 (15 pM) induced superoxide generation from eosinophils, pre-complexed, N = 5: 10.8
  pIC50, inhibition of IL-33 (15 pM) induced superoxide generation from eosinophils, pre-complexed, N = 6: 11
  pIC50, inhibition of IL-33 (15 pM) induced superoxide generation from eosinophils, pre-complexed, N = 7: 10.6
Human IL-33 [2]
  IC50, inhibition of 10 ng/mL IL-33/IL-12 induced IFN-γ secretion from whole blood, pre-complexed, Mean: 1.95 nM
  IC50, inhibition of 10 ng/mL IL-33/IL-12 induced IFN-γ secretion from whole blood, pre-complexed, donor #91232: 0.63 nM
  IC50, inhibition of 10 ng/mL IL-33/IL-12 induced IFN-γ secretion from whole blood, pre-complexed, donor #91845: 2.72 nM
  IC50, inhibition of 10 ng/mL IL-33/IL-12 induced IFN-γ secretion from whole blood, pre-complexed, donor #92023: 1.88 nM
  IC50, inhibition of 10 ng/mL IL-33/IL-12 induced IFN-γ secretion from whole blood, pre-complexed, donor #92257: 0.81 nM
  IC50, inhibition of 10 ng/mL IL-33/IL-12 induced IFN-γ secretion from whole blood, pre-complexed, donor #92258: 3.72 nM
  pIC50, inhibition of 10 ng/mL IL-33/IL-12 induced IFN-γ secretion from whole blood, pre-complexed, Mean: 8.8
  pIC50, inhibition of 10 ng/mL IL-33/IL-12 induced IFN-γ secretion from whole blood, pre-complexed, donor #91232: 9.19
  pIC50, inhibition of 10 ng/mL IL-33/IL-12 induced IFN-γ secretion from whole blood, pre-complexed, donor #91845: 8.56
  pIC50, inhibition of 10 ng/mL IL-33/IL-12 induced IFN-γ secretion from whole blood, pre-complexed, donor #92023: 8.72
  pIC50, inhibition of 10 ng/mL IL-33/IL-12 induced IFN-γ secretion from whole blood, pre-complexed, donor #92257: 9.08
  pIC50, inhibition of 10 ng/mL IL-33/IL-12 induced IFN-γ secretion from whole blood, pre-complexed, donor #92258: 8.42
cFcgRIIa
  Kd: 2110 nM
[3]
  Kd: 24.7 nM
[4]
  Kd: 25 nM
Human IL-33 [5]
  IC50, inhibition of IL-33 (5.0 nM) induced β-hexosaminidase release from basophils, pre-complexed, Mean: 2.03 nM
  IC50, inhibition of IL-33 (5.0 nM) induced β-hexosaminidase release from basophils, pre-complexed, donor #33235: 1.39 nM
  IC50, inhibition of IL-33 (5.0 nM) induced β-hexosaminidase release from basophils, pre-complexed, donor #90290: 4.53 nM
  IC50, inhibition of IL-33 (5.0 nM) induced β-hexosaminidase release from basophils, pre-complexed, donor #90356: 1.23 nM
  IC50, inhibition of IL-33 (5.0 nM) induced β-hexosaminidase release from basophils, pre-complexed, donor #90541: 0.97 nM
  pIC50, inhibition of IL-33 (5.0 nM) induced β-hexosaminidase release from basophils, pre-complexed, Mean: 8.78
  pIC50, inhibition of IL-33 (5.0 nM) induced β-hexosaminidase release from basophils, pre-complexed, donor #33235: 8.86
  pIC50, inhibition of IL-33 (5.0 nM) induced β-hexosaminidase release from basophils, pre-complexed, donor #90290: 8.34
  pIC50, inhibition of IL-33 (5.0 nM) induced β-hexosaminidase release from basophils, pre-complexed, donor #90356: 8.91
  pIC50, inhibition of IL-33 (5.0 nM) induced β-hexosaminidase release from basophils, pre-complexed, donor #90541: 9.01
